Numbered stars: 1 amine (or outer) side, 2 acyl side, 3 side chain; on linkers, the order of the positions; unused ones are H or OH. Square brackets hold non-standard residues; d marks the D form. Side chains are listed from the residue outwards. Ends that are not written are not given here. * marks the point of attachment. Phe(4-CH2NH2) = NCc1ccc(C[C@H](N)C(=O)O)cc1; C18 diacid = O=C(O)CCCCCCCCCCCCCCCCC(=O)*; C16 diacid = O=C(O)CCCCCCCCCCCCCCC(=O)*; γGlu = O=C(O)[C@H](CCC(=O)[*:2])N[*:1]; Met(O2) = CS(=O)(=O)CC[C@H](N)C(=O)O; αMeD = C[C@](N)(CC(=O)O)C(=O)O; AEEA = NCCOCCOCC(=O)O; Aib = CC(C)(N)C(=O)O; C16 = lipid (C16)
B1: TP596 (peptide)
peptide: H[Aib]QGTFLSDYSKYLDARAAK([AEEA-AEEA-γGlu-C18 diacid])DFVQWL[Met(O2)]DT-NH2
modifications: N-terminus assumed
SMILES: CC(C)C[C@H](NC(=O)[C@H](Cc1ccc(O)cc1)NC(=O)[C@H](CCCCN)NC(=O)[C@H](CO)NC(=O)[C@H](Cc1ccc(O)cc1)NC(=O)[C@H](CC(=O)O)NC(=O)[C@H](CO)NC(=O)[C@H](CC(C)C)NC(=O)[C@H](Cc1ccccc1)NC(=O)[C@@H](NC(=O)CNC(=O)[C@H](CCC(N)=O)NC(=O)C(C)(C)NC(=O)[C@@H](N)Cc1c[nH]cn1)[C@@H](C)O)C(=O)N[C@@H](CC(=O)O)C(=O)N[C@@H](C)C(=O)N[C@@H](CCCNC(=N)N)C(=O)N[C@@H](C)C(=O)N[C@@H](C)C(=O)N[C@@H](CCCCNC(=O)COCCOCCNC(=O)COCCOCCNC(=O)CC[C@H](NC(=O)CCCCCCCCCCCCCCCCC(=O)O)C(=O)O)C(=O)N[C@@H](CC(=O)O)C(=O)N[C@@H](Cc1ccccc1)C(=O)N[C@H](C(=O)N[C@@H](CCC(N)=O)C(=O)N[C@@H](Cc1c[nH]c2ccccc12)C(=O)N[C@@H](CC(C)C)C(=O)N[C@@H](CCS(C)(=O)=O)C(=O)N[C@@H](CC(=O)O)C(=O)N[C@H](C(N)=O)[C@@H](C)O)C(C)C
B2: TP601 (peptide)
peptide: H[Aib]QGTFTSDK([γGlu-γGlu-C16])SKYLDARAAK([AEEA-AEEA-γGlu-C18 diacid])DFVQWL[Met(O2)]DT-NH2
B3: TP605 (peptide)
peptide: H[Aib]QGTFTSDYSKYLDARAAQDFVQWL[Met(O2)][Phe(4-CH2NH2)]([AEEA-AEEA-γGlu-C20‑OH])T-NH2
B4: TP603 (peptide)
peptide: H[Aib]QGTFTSDYSKYLDARAAQDFVQWL[Met(O2)]K([AEEA-AEEA-γGlu-C20‑OH])T-NH2
B5: TP606 (peptide)
peptide: H[Aib]QGTFTSDK([γGlu-γGlu-C16])SKYLDARAAK([AEEA-AEEA-γGlu-C16 diacid])DFVQWL[Met(O2)]DT-NH2
B6: TP607 (peptide)
peptide: H[Aib]QGTFTSDK([γGlu-γGlu-C16])SKYLDARAAQDFVK([AEEA-AEEA-γGlu-C16 diacid])WL[Met(O2)][αMeD]T-NH2
B7: TP602 (peptide)
peptide: H[Aib]QGTFTSDYSKYLDARAAQDFVQWL[Met(O2)]K([AEEA-AEEA-γGlu-C18 diacid])T-NH2
modifications: N-terminus assumed
SMILES: CC(C)C[C@H](NC(=O)[C@H](Cc1ccc(O)cc1)NC(=O)[C@H](CCCCN)NC(=O)[C@H](CO)NC(=O)[C@H](Cc1ccc(O)cc1)NC(=O)[C@H](CC(=O)O)NC(=O)[C@H](CO)NC(=O)[C@@H](NC(=O)[C@H](Cc1ccccc1)NC(=O)[C@@H](NC(=O)CNC(=O)[C@H](CCC(N)=O)NC(=O)C(C)(C)NC(=O)[C@@H](N)Cc1c[nH]cn1)[C@@H](C)O)[C@@H](C)O)C(=O)N[C@@H](CC(=O)O)C(=O)N[C@@H](C)C(=O)N[C@@H](CCCNC(=N)N)C(=O)N[C@@H](C)C(=O)N[C@@H](C)C(=O)N[C@@H](CCC(N)=O)C(=O)N[C@@H](CC(=O)O)C(=O)N[C@@H](Cc1ccccc1)C(=O)N[C@H](C(=O)N[C@@H](CCC(N)=O)C(=O)N[C@@H](Cc1c[nH]c2ccccc12)C(=O)N[C@@H](CC(C)C)C(=O)N[C@@H](CCS(C)(=O)=O)C(=O)N[C@@H](CCCCNC(=O)COCCOCCNC(=O)COCCOCCNC(=O)CC[C@H](NC(=O)CCCCCCCCCCCCCCCCC(=O)O)C(=O)O)C(=O)N[C@H](C(N)=O)[C@@H](C)O)C(C)C
B8: TP583 (peptide)
peptide: H[Aib]QGTFTSDYSKYLDARAAQDFV[Phe(4-CH2NH2)]([AEEA-AEEA-γGlu-C18 diacid])WLLDT-NH2
modifications: N-terminus assumed
SMILES: CC(C)C[C@H](NC(=O)[C@H](Cc1ccc(O)cc1)NC(=O)[C@H](CCCCN)NC(=O)[C@H](CO)NC(=O)[C@H](Cc1ccc(O)cc1)NC(=O)[C@H](CC(=O)O)NC(=O)[C@H](CO)NC(=O)[C@@H](NC(=O)[C@H](Cc1ccccc1)NC(=O)[C@@H](NC(=O)CNC(=O)[C@H](CCC(N)=O)NC(=O)C(C)(C)NC(=O)[C@@H](N)Cc1c[nH]cn1)[C@@H](C)O)[C@@H](C)O)C(=O)N[C@@H](CC(=O)O)C(=O)N[C@@H](C)C(=O)N[C@@H](CCCNC(=N)N)C(=O)N[C@@H](C)C(=O)N[C@@H](C)C(=O)N[C@@H](CCC(N)=O)C(=O)N[C@@H](CC(=O)O)C(=O)N[C@@H](Cc1ccccc1)C(=O)N[C@H](C(=O)N[C@@H](Cc1ccc(CNC(=O)COCCOCCNC(=O)COCCOCCNC(=O)CC[C@H](NC(=O)CCCCCCCCCCCCCCCCC(=O)O)C(=O)O)cc1)C(=O)N[C@@H](Cc1c[nH]c2ccccc12)C(=O)N[C@@H](CC(C)C)C(=O)N[C@@H](CC(C)C)C(=O)N[C@@H](CC(=O)O)C(=O)N[C@H](C(N)=O)[C@@H](C)O)C(C)C
B9: TP599 (peptide)
peptide: H[Aib]QGTFTSDYSKYLDALAAK([AEEA-AEEA-γGlu-C18 diacid])DFVQWL[Met(O2)]DT-NH2
modifications: N-terminus assumed
SMILES: CC(C)C[C@H](NC(=O)[C@H](C)NC(=O)[C@H](CC(=O)O)NC(=O)[C@H](CC(C)C)NC(=O)[C@H](Cc1ccc(O)cc1)NC(=O)[C@H](CCCCN)NC(=O)[C@H](CO)NC(=O)[C@H](Cc1ccc(O)cc1)NC(=O)[C@H](CC(=O)O)NC(=O)[C@H](CO)NC(=O)[C@@H](NC(=O)[C@H](Cc1ccccc1)NC(=O)[C@@H](NC(=O)CNC(=O)[C@H](CCC(N)=O)NC(=O)C(C)(C)NC(=O)[C@@H](N)Cc1c[nH]cn1)[C@@H](C)O)[C@@H](C)O)C(=O)N[C@@H](C)C(=O)N[C@@H](C)C(=O)N[C@@H](CCCCNC(=O)COCCOCCNC(=O)COCCOCCNC(=O)CC[C@H](NC(=O)CCCCCCCCCCCCCCCCC(=O)O)C(=O)O)C(=O)N[C@@H](CC(=O)O)C(=O)N[C@@H](Cc1ccccc1)C(=O)N[C@H](C(=O)N[C@@H](CCC(N)=O)C(=O)N[C@@H](Cc1c[nH]c2ccccc12)C(=O)N[C@@H](CC(C)C)C(=O)N[C@@H](CCS(C)(=O)=O)C(=O)N[C@@H](CC(=O)O)C(=O)N[C@H](C(N)=O)[C@@H](C)O)C(C)C

Target: human Glucagon receptor (GCGR) (human, UniProt P47871 26-477)
Assay: cell-based or functional assay

Sequence of human Glucagon receptor (GCGR) (P47871 26-477): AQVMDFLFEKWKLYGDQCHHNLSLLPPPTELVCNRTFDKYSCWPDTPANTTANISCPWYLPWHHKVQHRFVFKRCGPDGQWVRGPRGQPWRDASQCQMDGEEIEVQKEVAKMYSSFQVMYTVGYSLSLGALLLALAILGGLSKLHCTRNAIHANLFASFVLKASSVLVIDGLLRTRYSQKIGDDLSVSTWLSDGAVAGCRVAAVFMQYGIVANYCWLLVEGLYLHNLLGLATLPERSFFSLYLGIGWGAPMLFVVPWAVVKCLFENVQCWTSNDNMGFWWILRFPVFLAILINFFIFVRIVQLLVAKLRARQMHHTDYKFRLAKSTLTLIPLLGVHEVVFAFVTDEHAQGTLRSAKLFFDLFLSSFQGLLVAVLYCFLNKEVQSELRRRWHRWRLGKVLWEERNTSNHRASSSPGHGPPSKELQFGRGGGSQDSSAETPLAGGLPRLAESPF

GCGR EC50 human [nM]	Binder
0.35	B1
1.8	B2
3.75	B3
1.88	B4
1.01	B5
0.57	B6
2.17	B7
6.37	B8
3.47	B9

Target: human GLP-1 receptor (GLP1R) (human, UniProt P43220 24-463)
Assay: cell-based or functional assay

GLP1R EC50 human [nM]	Binder
> 20	B1
8.5	B2
1.98	B3
1.17	B4
1.84	B5
1.06	B6
0.36	B7
0.74	B8
2.21	B9

— US20200270325A1 (Merck Sharp & Dohme, published 2020)
